These results are taken from the RNAGym collection of RNA variant scans (doi:10.1073/pnas.2313332121).

B1: TPR t1 (parent)
chain: GACCAAUCUGCCCUCAGAGCUCGAGAACAUCUUCGGAUGCAGAGGAGGCAGGCUUCGGUGGCGCGAUAGCGCCAACGUCCUCAACCUCCAAUGCAUCCCACCACAUGAUGAUGCCUGAAGAGCCUUGGUUUUUUG

Variants of B1 are the subject of this data set. The experiment in a line: polymerase ribozyme fitness, log enrichment relative to wild type (log ratio); higher = more active; in vitro selection for triplet polymerase activity. In a few lines:
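The heterodimeric triplet polymerase ribozyme's subunits were each mutagenized into PCR-built libraries and transcribed. Every library was selected once, in triplicate, by annealing with a biotinylated primer, the partner subunit and triplets, incubating frozen at −7 °C, gel-excising extended constructs, capturing on streptavidin beads and running RT-PCR. Input and output libraries were Illumina-sequenced, with genotypes kept only at ≥10 input reads and ≥1 read per output. Fitness, from inverse-variance-weighted replicate averages, is the base-2 logarithm of genotype enrichment over wild-type enrichment.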
GUCCAAUCUGCCCUCAGAGCUCGAGAACAUCUUCGGAUGCAGAGGAGGCAGGCCUCGGUGGCGCGAUAGCGCCAACGUCCUCAACCUCCAAUGCAUCCCACCACAUGAUGAGACCUGAAGAGCCUUGGUUUUAUG: the “polymerase ribozyme fitness (log ratio)” value is -2.96.
For GUCCAAUCUGCCCUCAGAGCUCGAGAACAUCUUCGGAUGCAGAGGAGGCAGACUUAGGUGGCGCGAUAGCGCCAACGUCCUAAACCUCCAGUGCAUCCCACCACAUGAUGAUGCCUGAAGCGCCUUGGUUUUUUG the value was -2.84.
For GUCCAAUCUGCCCUCAGAGCUCGAGAACAUCUUCGCAUGCAGAGGAGGCAGGCUUCGGUGGCGCGAUAGCGGCAACGUCCUCAACCUCCAAUGCAUCCCACCACAUGAUGAUGCCUGAAGAGCCUUGGUUUUUUG the value was -4.64; for GUCCAAUCUGCCCUCAGAGCUCGAGAACAUCUUCGCAUGCAGAGGAGGCAGGUUUCGGUGGCGCGAUAGCGCCAACGUCCUCAACCUCCAAUGCAUCCCACCACAUGAUGAUGCCUGAAGAGCCUUGGUUUUUUG, -3.54; for GUCCAAUCUGCCCUCAGAGCACGAGAACAUCUUCGAAUGCAGAGGAGGCAGGCUUUGGUGGCGCGAUAGCGCCAACGUCCUCAACCUCCAAUGCAUCCCACCACAUGAUGAUGACUGAAGAGCCUUGGUUUUUUG, -3.98.
In the case of GUCCAAUCUGCCCUCAGAGCUCGAGAACAUCUUCGGAUGCAGAGGAGGCAGGCUUCGGUGGCGCGAUAGCGCCAACGUCCUCAACCUCCAAUGCAUCCCACCACAUGAUCAUGCCUGAAGAGCCUUGGUUUUUUG it was -6.03; in that of GUCCAAUCUGCCCUCAGAGCUCGAGAACAUCUUCGGAUGCAGAGGAGGCAGGCUUCGGUGGCGCGAUAGCGCCAACGUCCUCAACCUCCAAUGCAUCCCACCACAUGAUAAUGCCUGAAGAGCCUUGGUUUUUUG, -3.63; in that of GUCCAAUCUGCCCUCAGAGCUCGAGAACAUCUUCGGAUGCAGAGGAGGCAGGCUUCGGUGGCGCGAUAGCGCCAACGUCCUCAACCUCCAAUGCAUCCCACCACAAGAUGAUGCCUGAAGAGCCUUGGCUUUUUG, -1.74.
For the variant GUCCAAUCUGCCCUCAGAGCUCGAGAACAUCUUCGGAUGCAGAGGAGGCAGGCUUCGGUUGCGCGAUAGCGCCAACGUCCUGAACCUCCAAUGCAUCCCACCACAUGAUGAUGCCUGAAGAGCCUUGGUUUUUUG, the “polymerase ribozyme fitness (log ratio)” value was -3.31.
In the case of GUCCAAUCUGCCCUCAGAGCUCGAGAACAUCUUCGGAUGCAGAGGAGGCAGGCUUCGGUGGCGCGAUAGCGCCAACGUCCUCAACCUCCAAUGCAUCCCACCACAAGAUGAUGCCUGAAGAGCCUUGGUUUUUUG, the “polymerase ribozyme fitness (log ratio)” value is -1.89.
For GUCCAAUCUGCCCUCAGAGCUCGAGAACAUCUUCGGAUGCAGAGGAGGCAGGCUUCGGUGGCGCGAUAGCGCCAACGUCCUCAACCUCCAAUGCAUCCCACCACAUGAUGAUGCCUGAAGAGCCUUGGUUUUUUU the value was -1.94; for GUCCAAUCGGCCCUCAGAGCUCGAGAACAUCUUCGGAUGCAGAGGAGGCGGGCUUCGGUGGUGCGAUAGCGCCAACGUCCUCAACCUCCAAUGCAUCACACCACAUGAUGAUGCCUGAACAGCCUUGGUUUUUUG, -5.94.
Consider GUCCAAUCUGCCCUCAGAGCUCGAGAACAUCUUCGGAUGCAGAGGAGGCAGGCAUCGGUGGCGCGAUAGCGCCAACGUCCUCAACCUCCAAUGCAUCCCACCACAUGAUGAUGCCUGAAGAGCCUUGGUUUUUUG, for which the “polymerase ribozyme fitness (log ratio)” value is -2.36.
In the case of GUCCAAUCUGCCCUCAGAGCUCGAGAACAUCUUCGGAGGCAGAGGAGGCAGGCUUCGGUGGCGCGAUAGUGCCAACGUCCUCAACCUCCAAUGCAUCUCACCACAUGAUGAUGCCUGAAGAGCCUUGUUUUUUUG it was -6.66; in that of GUCCAAUCUGCCCUCAGAGCUCGAGAACAUCUUCGGAUGCAGAGGAGGCAGGCUUCGGUUGCGCGAUAGCGCCAACGUCCUCAACCUCCAAUGCAUCCCACCACAUGAUGAUGCCUGAAGAGCCUUGGUUUUUUG, -1.99.
For GUCCAAUCUGCCCUCAGAGCUCGAGAACAUCUUCGGAUGCAGAGGAGGCAGGCUUCGGUGUCGCGAUAGCGCCAACGUCCUCAACCUCCAAUGCAUCCCACCACAUGAUGAUCUCUGAAGAGCCUUGGUUUUUUG the value was -3.06.
For GUCCAAUCAGCCCUCAGAGCUCGAGCACAUCUUCGGAUGCAGAGGAGGCAGGCUUCGGUAGCGCGAUAGCGCCAACGUCCUCAACCUCCAAUGCAUCCCACCACAUGAUGAUGCCUUAAGAGCCUUGGUUUUUUG the value was -6.53; for GUCCAAUCAGUCCUCAGCGAUCGAGAACAUGUUCGGAUGCAGAGGAGGCAGGCUUCGGUGGCGCGAUAGCGCCAACAUCCUCGACCUCCAAUGCAUACCACCACAUGAUGAUUCCUGAAGAGCUUUGGUUUUUUG, -7.17; for GUCCAAUCUGCCCUCAGAGCUCGAGAACAUCUUCGGAUGCACAGGAGGCAGGCUUCGGUGGCGCGAUAGCGACAACGUCCUCAACCUCCAAUGCAUCCCACCACAUGAUGAUGCCUGAAGAGCCUUGGUUUUUUG, -3.5.
Turning to GUCCAAUCUGCCCUCAGAGCUCGAGAACAUCUUCGGAUGCAGAGGAGGCAGGCUUCGGUGGCGCGAUAUCGCCAACGUCCUCAACCUCCAAUGCAUCCCACUACAUGAUGAUACCUGAAGAGCCUUGGAUUUUUG, the “polymerase ribozyme fitness (log ratio)” value was -0.898.
In the case of GUCCAAUCUGCCCUCAGAGCUCGAGAACAUCUUCGGAUGCAGAGGAGGCAGGCUUCGGUGACGCGAUAGCGCCAACGUCCUCAACCUCCAAUGCAUCCCACCACAUGAUGAUGCCUGAAGAGCCUUGGUUUUUUG it was -2.17.
In the case of GUCCAAUCUGCCCUCAGAGCUCGAGAACAUCUUCGGAUGCAGAGGAGGCAGGCUUCGGUGUCGCGAUAGCGCCAACGUCCUCAACCUCCAAUGCAUCCCACCACAUGAUGAUGCCUGAAGAGCCUUGGUUUUUUG it was -1.84.
For GUCCAAUCUGCCCUCAGAGCUCGAGAACAUCUUCGGAUGCAGAGGAUGCAGGCUUCGGUGUCGCGAUAGCGCCAACGUCCUCAACCUCCAAUGCAUCCCACCACAUGAUGAUGCCUGAAGAGCCUUGGUUUUUUG, the “polymerase ribozyme fitness (log ratio)” value is -4.48.
With GUCCAAGCUGCCCUCAGAGCUAGAGAACAUCUGCGGAUGCAGAGGAGGCAGGCUUCGGUGGCGCGAUAGCGUCAACGUCCUCAACCUCCAAUGCAUCCCACCACAUGAUGAUGCCUGAACAGCCUUGGUUUUUUG, the “polymerase ribozyme fitness (log ratio)” value was -7.
With GUCCAAUCUGCCCUCAGAGCUCGAGAACAUCUUCGGAUGCAGAGGAGGCAGGCUUCGGUGGCCCGAUAGCGCCAACGUCCUCAACCUCCAAUGCAUCCCACCACAUGAUGAUGCCUGAAGAGCCUUGGUUUUUUG, the “polymerase ribozyme fitness (log ratio)” value was -3.13.
Take GUCCAAUCUGCCCUCAGAGCUCGAGAACAUCUUCGGAUGCAGAGGAGGCAGGCUUCGGUGGCACGAUAGCGCCAACGUCCUCAACCUCCAAUGCAUCCCACCACAUGAUGAUGCCUGAAGAGCCUUGGUUUUUUG: the “polymerase ribozyme fitness (log ratio)” value is -2.23.
For GUCCAAUCUGCCCUCAGAGCUCGAGAACAUCUUCGGAUGCAGAGGAGGCAGGCUUCGGUGGCGCGAUAGCGCCAACGUCCUCAACCUCCAAUGCAUCCCACCACAUGAUGAUGCCUGAAGAGCCUUCGUUUUUUG the value was -2.05; for GUCCAAUCUGCCCUCAGAGCUCGAGAACAUCUUCGGAUGCAGAGGAGGCAGGCUUCGGCGGCGCGAUAGCGCCAACGUCCUCAACCUCCAAUGCAUCCCACCACAUGAUGAUGCCUGAAGAGCCUUGGUUUUUUG, -2.87; for GUCCAAUCUGCCCUCAGAGCUCGAGAACAUCUUCGGAUGCAGAGGAGGCAGGCUUCGGUGGCGCGAUAGCCCCAACGUCCUCAACCUCCAAUGCAUCCCAUCACAUGAUGAUGCCUGAAGAGCCUUUGUUUUUUG, -2.85.
In the case of GUCCAAUCUGCCCUCAGAGCUCGAGAACAUCUUCGGAUGCAGAUGAGGCAGGCUUCGGUGGCGCGAUAGUGCCAACGUCCUCAACCUCCUAUGCAUCCCACCACAUGAUGAUGCCUGAAGAGCCUUGGUUUUUUG it was -5.08.
In the case of GUCCAAUCUGCCCUCAGAGCUCGAGAACAUCUUCGGAUGCAGAGGAGGCAGUAUUCGGUGGCUCGAUAGCGCCAACGUCCUCAACCUCCAAUGCAUCCCACCACAUGAUGAUGCCUGAAGAGCCUUGGUUUCUUG it was -2.74; in that of GUCCAAUCUGCCCUCAGAGCUCGAGAACAUCUUCGGAUGCAGAGGAGGCAGGCUUCGGUGGCGCGAUAGCGCCAACGUCCUCAACCUCCAAUGCAUCCCACCACAUGAUCAUGCCUGAAGAGCCUUGGUUAUUUG, -5.15.
In the case of GUCCAAUCUGCCCUCAGAGCUCGAGAACAUCUUCGGAUGCAGAGGAGGCAGGCUUCGGUGGCGCGAUAGCGCCAACAUCCUCAACCUCCAAUGCAUCCCACCACAUGAUGAUGCCUGAAGAGCCUUGGUUUUUUG, the “polymerase ribozyme fitness (log ratio)” value is -2.8.
For GUCCAAUCUGCCCUCAGAGCUCGAGAACAUCUUCGGAUGCAGAGGAGGCAGGCUUCCGUGGCGCGAUAGCGCCAACGUCCUCAACCUCCAAUGCAUCCCACCACAUGAUGAUGCCUGAAGAGCCUUGGUUUUUUG, the “polymerase ribozyme fitness (log ratio)” value is -2.3.
For the variant GUCCAAUCUGCCCUCAGAGCUCGAGAACAUCUUCGGAUGCAGAGGAGGCAUGCUUCGGGGGCGCGAUAGCGCCAACGUCCUCACCCUCCAAUGCAUCCCACCACAUGAUGAUGCCUGAAGAGCCUUGGUUUUUUG, the “polymerase ribozyme fitness (log ratio)” value was -4.9.
For GUCCAAUCUGCCCUCAGAGCUCGAGAACAUCUUCGGAUGCAGAGGAGGCAGGCUUCGGUGGCGCGAUAGCACCAACGUCCUCAACCUCCAAUGCAUCCCACCACAUGAUGAUGCCUGAAGAGCCUUGGUUUUUUG the value was -2.72; for GUCCAAUCUGCCCUCAGAGCUCGAGAACAUCUUCGCAUGCAGAGGAGGCAGGCUUCGGUGGCGCGAUAGCGCCAACGUCCUUAACCUCCAAUGCAUCCCACCACAUGAUGAUUCCUGAAGAGCCUUGGUUUUUUU, -5.19; for GUCCAAUCUGCCCUCAGAGCUCGAGAACAUCUUCGGAUGCAGAGGAGGCAGGCUUCGGUGGCGCGAUAGCGCCAACGUCCUCAACCGCCAAUGCAGCCCACCACAUGAUGAUGCCUGAAGAGCCUUGGUUUUUUG, -3.12.
In the case of GUCCAAUCUGCCCUCAGAGCUCGAGAACAUCUUCGGAUGCAGAGAAGGCAGGCUUCGGUGGCGCGAUAUCGCCAACGUCCUCAACCUCCAAUGCAUCCCACCACAUGAUGAUGCCUGAAGAGCAUUGGUUUUUUG it was -0.409; in that of GUCCAAUCUGCCCUCAGAGCUCGAGAACAUCUUCGGAUGCAGAGGAGGCAGUCUUCGGUGGCGCGAUAGCGCCAACGUCCUCAACCUCCAAUGCAUCCCACCACAUGAUGAUGCCUGAAGAGCCUUGGUUUUUUG, -3.41.
On to GUCCAAUCAGGCCUCAGAGCUCGUGAACAUCUUCGUAUGCAGAGGAGGCAGGCUUGGGUGGCGCGAUAGCGCCAACGUCCUCAACCUCCAAUGCAUCCCACCACAUGAUGAUGCCUGAAGAGGCUUGGUUUUUUG, for which the “polymerase ribozyme fitness (log ratio)” value was -7.43.
In the case of GUCCAAUCUGCCCUCAGAGCUCGAGAACAUCUUCGGAUGCAGAGGAGGCAGGCUUCGGUGGCGCGAUAGCGCCAACGUCCUCAACCUCCAAUGCAUCCCACCACAAGAUGAUGCCUGAAGAGCCUUGUUUCUUUG it was -1.21.
